{
  "source": "patent US20130101601A1",
  "about": "(ANAPTYSBIO, published 2013)",
  "binders": {"B1": {"name": "APE391 (antibody, V domains shown)", "VH": "QVQLVQSGAEVKKPGSSVKVSCKASGGTFSNYAISWVRQAPGQGLEWMGGIIPIFGTANYAQKFQGRVTITADESTSTAYMELSSLRSEDTAVYYCARGPEYYDYVWGSYRYNYFDYWGQGTLVTV", "VL": "not shown", "notes": "Fully human IgG; also called HC/LC pair from SCC C10A"}, "B2": {"name": "APE583 (antibody, V domains shown)", "VH": "QVQLVQSGAEVKKPGSSVKVSCKASGGTFSNYAISWVRQAPGQGFEWMGGIIPIFGTANYAQKFQGRVTITADESTSTAYMELSSLRSEDTAVYYCARGPEYYDYVWGSYRYNYFDYWGQGTLVTV", "VL": "not shown", "notes": "APE391 with the HC mutation L45F"}, "B3": {"name": "APE803 (antibody, V domains shown)", "VH": "QVQLVQSGAEVKKPGSSVKVSCKASGDTFSNYATGDTFSNYAISWVRQAPGQGFEWMGGIIPIFGTANYAQKFQGRVTITADESTSTAYMELSSLRSEDTAVYYCARGPEYYAYVWGSYRYNYFDYWGQGTLVTV", "VL": "not shown", "notes": "HC CDR3 mutation D100A in the context of the APE646 variant"}, "B4": {"name": "APE925 (antibody, V domains shown)", "VH": "QVQLVQSGAEVKKPGSSVKVSCKASGDTFNNYATGDTFSNYAISWVRQAPGQRFEWMGGIIPIFDTANYAQKFQGRVTITADESTNTAYMELSSLRSEDTAVYYCARGPEYYAYVWGSYSYNYFDYWGQGTLVTV", "VL": "not shown"}},
  "key": {"[1]": {"target": "T1, human βNGF (Nerve Growth Factor) (human, UniProt P01138 122-241, limits assumed)", "T1 construct": "In the FACS rounds it was used biotinylated, fluorochrome-labelled or fused to wasabi fluorescent protein; The construct used in the Biacore runs is not described; also called hβNGF", "T1 sequence (P01138 122-241 limits assumed)": "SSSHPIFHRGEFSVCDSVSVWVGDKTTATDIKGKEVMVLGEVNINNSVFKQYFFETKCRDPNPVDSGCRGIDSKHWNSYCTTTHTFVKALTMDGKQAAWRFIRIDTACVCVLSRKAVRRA", "experiment": "Biacore and flow cytometry-based antigen-binding assays"}, "[2]": {"target": "T1, human βNGF (Nerve Growth Factor)", "experiment": "kinetic characterization (Biacore)"}, "[3]": {"target": "T1, human βNGF (Nerve Growth Factor)", "experiment": "Biacore, purified antibody captured at low density (Rmax<30)", "description": "Mutations observed in both strategies not utilized by APE803 were recombined by overlap extension PCR in a combinatorial library, each HC/LC pair was expressed and characterized on Biacore utilizing direct capture of secreted antibodies."}},
  "data": [
    {"binder": "B1", "values": [
      {"measurement": "binding result", "setting": "[1]", "result": "binds"}
    ]},
    {"binder": "B2", "values": [
      {"measurement": "binding result", "setting": "[2]", "result": "binds"}
    ]},
    {"binder": "B3", "values": [
      {"measurement": "Kd", "setting": "[2]", "result": 760, "unit": "pM"},
      {"measurement": "fold improvement in kon (against APE646)", "setting": "[2]", "result": 100, "unit": "fold"}
    ]},
    {"binder": "B4", "values": [
      {"measurement": "Kd", "setting": "[3]", "result": 25, "unit": "pM"}
    ]}
  ]
}
